From patent publication US20140087995A1 (published 2014)
Numbered stars: 1 amine (or outer) side, 2 acyl side, 3 side chain; on linkers, the order of the positions; unused ones are H or OH. Bridge positions count the residues as written; N and C are the ends. Side chains are listed from the residue outwards. Ends that are not written are not given here. * marks the point of attachment. C20 diacid = O=C(O)CCCCCCCCCCCCCCCCCCC(=O)*; γGlu = O=C(O)[C@H](CCC(=O)[*:2])N[*:1]; AEEA = NCCOCCOCC(=O)O

T1: rat calcitonin receptor (rat, UniProt P32214 25-516)
T1 construct: whole, on cells; Membranes prepared from transiently transfected BHK tk'ts 13 cells (Assay VIII); also called rCTR; rCT
T1 sequence (looked up): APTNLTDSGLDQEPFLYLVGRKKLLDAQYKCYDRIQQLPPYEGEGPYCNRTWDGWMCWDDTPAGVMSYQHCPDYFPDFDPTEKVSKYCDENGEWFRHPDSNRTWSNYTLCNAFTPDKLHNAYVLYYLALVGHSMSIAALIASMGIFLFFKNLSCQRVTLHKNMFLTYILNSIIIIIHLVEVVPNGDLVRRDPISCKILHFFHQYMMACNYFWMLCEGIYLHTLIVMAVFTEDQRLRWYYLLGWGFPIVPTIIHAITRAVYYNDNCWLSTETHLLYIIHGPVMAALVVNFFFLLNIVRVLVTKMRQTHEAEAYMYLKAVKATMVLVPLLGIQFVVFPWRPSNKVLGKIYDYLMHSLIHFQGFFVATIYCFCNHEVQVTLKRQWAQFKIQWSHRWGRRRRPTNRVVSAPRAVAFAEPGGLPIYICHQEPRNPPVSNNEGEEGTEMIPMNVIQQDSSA

T2: rat amylin receptor (rat calcitonin receptor + rat RAMP 3) (rat, UniProt P32214 25-516; Q9JJ73 23-147)
T2 construct: whole, on cells; Membranes prepared from transiently transfected BHK tk'ts 13 cells (Assay VI); also called rAmylin-R; rAmylin
T2 sequence (looked up) 1: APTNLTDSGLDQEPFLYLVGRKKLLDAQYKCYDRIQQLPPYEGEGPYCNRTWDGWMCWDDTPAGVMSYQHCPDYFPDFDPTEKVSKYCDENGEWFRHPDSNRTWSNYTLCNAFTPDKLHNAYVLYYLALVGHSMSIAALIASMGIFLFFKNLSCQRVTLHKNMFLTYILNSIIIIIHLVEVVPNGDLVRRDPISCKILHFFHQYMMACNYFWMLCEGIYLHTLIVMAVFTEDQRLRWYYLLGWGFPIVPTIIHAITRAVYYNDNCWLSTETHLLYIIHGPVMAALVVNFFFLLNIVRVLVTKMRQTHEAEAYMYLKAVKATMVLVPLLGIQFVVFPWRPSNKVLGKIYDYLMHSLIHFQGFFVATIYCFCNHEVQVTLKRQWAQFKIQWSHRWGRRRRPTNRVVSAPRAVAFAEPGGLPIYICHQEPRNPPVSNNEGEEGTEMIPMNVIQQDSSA
T2 sequence (looked up) 2: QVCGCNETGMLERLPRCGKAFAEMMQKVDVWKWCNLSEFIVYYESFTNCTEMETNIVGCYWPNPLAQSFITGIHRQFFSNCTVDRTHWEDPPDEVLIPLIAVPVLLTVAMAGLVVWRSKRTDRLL

T3: human calcitonin receptor (human, UniProt P30988 25-474)
T3 construct: whole, on cells; Membranes prepared from a stably transfected BHK cell line (Assay VII); also called hCTR; hCT
T3 sequence (looked up): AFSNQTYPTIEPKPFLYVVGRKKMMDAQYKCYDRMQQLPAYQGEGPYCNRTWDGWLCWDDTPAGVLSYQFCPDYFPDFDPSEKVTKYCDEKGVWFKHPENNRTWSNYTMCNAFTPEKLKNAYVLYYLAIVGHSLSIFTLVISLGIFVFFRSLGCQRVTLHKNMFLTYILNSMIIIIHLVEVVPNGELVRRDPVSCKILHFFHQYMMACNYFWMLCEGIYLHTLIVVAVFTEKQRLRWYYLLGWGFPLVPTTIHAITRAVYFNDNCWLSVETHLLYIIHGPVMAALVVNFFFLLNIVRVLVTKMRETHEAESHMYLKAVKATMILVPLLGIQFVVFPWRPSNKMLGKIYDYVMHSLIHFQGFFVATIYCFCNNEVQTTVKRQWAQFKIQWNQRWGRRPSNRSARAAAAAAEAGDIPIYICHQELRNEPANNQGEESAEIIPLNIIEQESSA


Tests used:
rat calcitonin receptor [1] = biological target: T1, rat calcitonin receptor; test: ratio of binding IC50s: rat calcitonin receptor / rat amylin receptor (reference)
[2] = biological target: T2, rat amylin receptor (rat calcitonin …); test: SPA competition vs 125I-rat amylin, membranes of BHK cells with rat calcitonin receptor + rat RAMP3 (Assay VI)
rat calcitonin receptor [3] = biological target: T1, rat calcitonin receptor; test: SPA competition vs 125I-calcitonin, membranes of BHK cells with rat calcitonin receptor (Assay VIII)
[4] = biological target: T3, human calcitonin receptor; test: ratio of binding IC50s: human calcitonin receptor / human amylin receptor (reference)
Outline: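 IC₅₀ values were derived by one-site competition analysis of SPA counts. Cell membranes (35 ng/μL) with SPA beads were incubated with test compounds for 120 min at 25° C in Hepes buffer, pH 7.4, containing CaCl2, MgCl₂, OA and Tween20.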

Row | Binder | Ratio rCT/rAmylin binding (rat calcitonin receptor [1]) | IC50 [2] [nM] | IC50 (rat calcitonin receptor [3]) [nM] | Ratio hCT/hAmylin binding [4]
1 | K([γGlu-C20 diacid])CNTATCATQRLAHFLRHSSPNFGAIPSSTNVGSNTY-NH2 (disulfide 2-7; N-terminus assumed; SMILES CC[C@H](C)[C@H](NC(=O)[C@H](C)NC(=O)CNC(=O)[C@H](Cc1ccccc1)NC(=O)[C@H](CC(N)=O)NC(=O)[C@@H]1CCCN1C(=O)[C@H](CO)NC(=O)[C@H](CO)NC(=O)[C@H](Cc1c[nH]cn1)NC(=O)[C@H](CCCNC(=N)N)NC(=O)[C@H](CC(C)C)NC(=O)[C@H](Cc1ccccc1)NC(=O)[C@H](Cc1c[nH]cn1)NC(=O)[C@H](C)NC(=O)[C@H](CC(C)C)NC(=O)[C@H](CCCNC(=N)N)NC(=O)[C@H](CCC(N)=O)NC(=O)[C@@H](NC(=O)[C@H](C)NC(=O)[C@@H]1CSSC[C@H](NC(=O)[C@@H](N)CCCCNC(=O)CC[C@H](NC(=O)CCCCCCCCCCCCCCCCCCC(=O)O)C(=O)O)C(=O)N[C@@H](CC(N)=O)C(=O)N[C@@H]([C@@H](C)O)C(=O)N[C@@H](C)C(=O)N[C@@H]([C@@H](C)O)C(=O)N1)[C@@H](C)O)C(=O)N1CCC[C@H]1C(=O)N[C@@H](CO)C(=O)N[C@@H](CO)C(=O)N[C@H](C(=O)N[C@@H](CC(N)=O)C(=O)N[C@H](C(=O)NCC(=O)N[C@@H](CO)C(=O)N[C@@H](CC(N)=O)C(=O)N[C@H](C(=O)N[C@@H](Cc1ccc(O)cc1)C(N)=O)[C@@H](C)O)C(C)C)[C@@H](C)O, Analogue of human amylin; also called compound 70) [N^ε1-[(4S)-4-carboxy-4-(19-carboxynonadecanoylamino)butanoyl]-[His14,Arg17,Pro21,Pro27]-h-amylin] | 96.5 | 0.355 | 34.2 | 60.8
2 | K([γGlu-γGlu-C20 diacid])CNTATCATQRLAHFLRHSSPNFGAIPSSTNVGSNTY-NH2 (disulfide 2-7; N-terminus assumed; SMILES CC[C@H](C)[C@H](NC(=O)[C@H](C)NC(=O)CNC(=O)[C@H](Cc1ccccc1)NC(=O)[C@H](CC(N)=O)NC(=O)[C@@H]1CCCN1C(=O)[C@H](CO)NC(=O)[C@H](CO)NC(=O)[C@H](Cc1c[nH]cn1)NC(=O)[C@H](CCCNC(=N)N)NC(=O)[C@H](CC(C)C)NC(=O)[C@H](Cc1ccccc1)NC(=O)[C@H](Cc1c[nH]cn1)NC(=O)[C@H](C)NC(=O)[C@H](CC(C)C)NC(=O)[C@H](CCCNC(=N)N)NC(=O)[C@H](CCC(N)=O)NC(=O)[C@@H](NC(=O)[C@H](C)NC(=O)[C@@H]1CSSC[C@H](NC(=O)[C@@H](N)CCCCNC(=O)CC[C@H](NC(=O)CC[C@H](NC(=O)CCCCCCCCCCCCCCCCCCC(=O)O)C(=O)O)C(=O)O)C(=O)N[C@@H](CC(N)=O)C(=O)N[C@@H]([C@@H](C)O)C(=O)N[C@@H](C)C(=O)N[C@@H]([C@@H](C)O)C(=O)N1)[C@@H](C)O)C(=O)N1CCC[C@H]1C(=O)N[C@@H](CO)C(=O)N[C@@H](CO)C(=O)N[C@H](C(=O)N[C@@H](CC(N)=O)C(=O)N[C@H](C(=O)NCC(=O)N[C@@H](CO)C(=O)N[C@@H](CC(N)=O)C(=O)N[C@H](C(=O)N[C@@H](Cc1ccc(O)cc1)C(N)=O)[C@@H](C)O)C(C)C)[C@@H](C)O, Analogue of human amylin; also called compound 92) | 156 | 0.668 | 104 | 145
3 | K([AEEA-C20 diacid])CNTATCATQRLAHFLRHSSPNFGAIPSSTNVGSNTY-NH2 (disulfide 2-7; N-terminus assumed; SMILES CC[C@H](C)[C@H](NC(=O)[C@H](C)NC(=O)CNC(=O)[C@H](Cc1ccccc1)NC(=O)[C@H](CC(N)=O)NC(=O)[C@@H]1CCCN1C(=O)[C@H](CO)NC(=O)[C@H](CO)NC(=O)[C@H](Cc1c[nH]cn1)NC(=O)[C@H](CCCNC(=N)N)NC(=O)[C@H](CC(C)C)NC(=O)[C@H](Cc1ccccc1)NC(=O)[C@H](Cc1c[nH]cn1)NC(=O)[C@H](C)NC(=O)[C@H](CC(C)C)NC(=O)[C@H](CCCNC(=N)N)NC(=O)[C@H](CCC(N)=O)NC(=O)[C@@H](NC(=O)[C@H](C)NC(=O)[C@@H]1CSSC[C@H](NC(=O)[C@@H](N)CCCCNC(=O)COCCOCCNC(=O)CCCCCCCCCCCCCCCCCCC(=O)O)C(=O)N[C@@H](CC(N)=O)C(=O)N[C@@H]([C@@H](C)O)C(=O)N[C@@H](C)C(=O)N[C@@H]([C@@H](C)O)C(=O)N1)[C@@H](C)O)C(=O)N1CCC[C@H]1C(=O)N[C@@H](CO)C(=O)N[C@@H](CO)C(=O)N[C@H](C(=O)N[C@@H](CC(N)=O)C(=O)N[C@H](C(=O)NCC(=O)N[C@@H](CO)C(=O)N[C@@H](CC(N)=O)C(=O)N[C@H](C(=O)N[C@@H](Cc1ccc(O)cc1)C(N)=O)[C@@H](C)O)C(C)C)[C@@H](C)O, Analogue of human amylin; also called compound 90) [N^ε1-[2-[2-[2-(19-carboxynonadecanoylamino)ethoxy]ethoxy]acetyl]-[His14,Arg17,Pro21,Pro27]-h-amylin] | 74.1 | 0.246 | 18.2 | 42.2
4 | K([γGlu-γGlu-C20 diacid])CNTATCATQRLAEFLRHSSPNFGAIPSSTNVGSRTY-NH2 (disulfide 2-7; N-terminus assumed; SMILES CC[C@H](C)[C@H](NC(=O)[C@H](C)NC(=O)CNC(=O)[C@H](Cc1ccccc1)NC(=O)[C@H](CC(N)=O)NC(=O)[C@@H]1CCCN1C(=O)[C@H](CO)NC(=O)[C@H](CO)NC(=O)[C@H](Cc1c[nH]cn1)NC(=O)[C@H](CCCNC(=N)N)NC(=O)[C@H](CC(C)C)NC(=O)[C@H](Cc1ccccc1)NC(=O)[C@H](CCC(=O)O)NC(=O)[C@H](C)NC(=O)[C@H](CC(C)C)NC(=O)[C@H](CCCNC(=N)N)NC(=O)[C@H](CCC(N)=O)NC(=O)[C@@H](NC(=O)[C@H](C)NC(=O)[C@@H]1CSSC[C@H](NC(=O)[C@@H](N)CCCCNC(=O)CC[C@H](NC(=O)CC[C@H](NC(=O)CCCCCCCCCCCCCCCCCCC(=O)O)C(=O)O)C(=O)O)C(=O)N[C@@H](CC(N)=O)C(=O)N[C@@H]([C@@H](C)O)C(=O)N[C@@H](C)C(=O)N[C@@H]([C@@H](C)O)C(=O)N1)[C@@H](C)O)C(=O)N1CCC[C@H]1C(=O)N[C@@H](CO)C(=O)N[C@@H](CO)C(=O)N[C@H](C(=O)N[C@@H](CC(N)=O)C(=O)N[C@H](C(=O)NCC(=O)N[C@@H](CO)C(=O)N[C@@H](CCCNC(=N)N)C(=O)N[C@H](C(=O)N[C@@H](Cc1ccc(O)cc1)C(N)=O)[C@@H](C)O)C(C)C)[C@@H](C)O, Analogue of human amylin; also called compound 89) | 48.8 | 2.37 | 115 | 28
5 | K([γGlu-γGlu-C20 diacid])CNTATCATQRLAEFLRHSSPNFGAIPSSTNVGHNTY-NH2 (disulfide 2-7; N-terminus assumed; SMILES CC[C@H](C)[C@H](NC(=O)[C@H](C)NC(=O)CNC(=O)[C@H](Cc1ccccc1)NC(=O)[C@H](CC(N)=O)NC(=O)[C@@H]1CCCN1C(=O)[C@H](CO)NC(=O)[C@H](CO)NC(=O)[C@H](Cc1c[nH]cn1)NC(=O)[C@H](CCCNC(=N)N)NC(=O)[C@H](CC(C)C)NC(=O)[C@H](Cc1ccccc1)NC(=O)[C@H](CCC(=O)O)NC(=O)[C@H](C)NC(=O)[C@H](CC(C)C)NC(=O)[C@H](CCCNC(=N)N)NC(=O)[C@H](CCC(N)=O)NC(=O)[C@@H](NC(=O)[C@H](C)NC(=O)[C@@H]1CSSC[C@H](NC(=O)[C@@H](N)CCCCNC(=O)CC[C@H](NC(=O)CC[C@H](NC(=O)CCCCCCCCCCCCCCCCCCC(=O)O)C(=O)O)C(=O)O)C(=O)N[C@@H](CC(N)=O)C(=O)N[C@@H]([C@@H](C)O)C(=O)N[C@@H](C)C(=O)N[C@@H]([C@@H](C)O)C(=O)N1)[C@@H](C)O)C(=O)N1CCC[C@H]1C(=O)N[C@@H](CO)C(=O)N[C@@H](CO)C(=O)N[C@H](C(=O)N[C@@H](CC(N)=O)C(=O)N[C@H](C(=O)NCC(=O)N[C@@H](Cc1c[nH]cn1)C(=O)N[C@@H](CC(N)=O)C(=O)N[C@H](C(=O)N[C@@H](Cc1ccc(O)cc1)C(N)=O)[C@@H](C)O)C(C)C)[C@@H](C)O, Analogue of human amylin; also called compound 87) | 45.6 | 2.07 | 94.5 | 35.6
